Experiments:
integrin α5β1 = biological target: T1, integrin α5β1 (human, UniProt P08648 42-1049; P05556 21-798); assay: flow cytometry on human tumor cell panel (FIG. 1)
T1 construct: whole, on cells
Description: Flow cytometry. scFv binding to human tumor cells was analyzed by flow cytometry, initially with cloned scFv phage and then with purified scFv protein. […] Binding/washing buffer was TBS with or without divalent cations (1 mM Ca²⁺, 1 mM Mg²⁺, 0.2 mM Mn²⁺). […] All samples were counter stained with propidium iodide (PI) and analyzed on a Becton-Dickinson FACScan, with live gate set to exclude PI positive cells.

integrin αvβ5 = biological target: T2, integrin αvβ5 (human, UniProt P06756 31-1048; P18084 24-799); assay: flow cytometry on human tumor cell panel (summary statement)
T2 construct: whole, on cells

integrin αvβ1 = biological target: T3, integrin αvβ1 (human, UniProt P06756 31-1048; P05556 21-798); assay: as above
T3 construct: whole, on cells
T3 sequence (P06756 31-1048, chain 1 of 2): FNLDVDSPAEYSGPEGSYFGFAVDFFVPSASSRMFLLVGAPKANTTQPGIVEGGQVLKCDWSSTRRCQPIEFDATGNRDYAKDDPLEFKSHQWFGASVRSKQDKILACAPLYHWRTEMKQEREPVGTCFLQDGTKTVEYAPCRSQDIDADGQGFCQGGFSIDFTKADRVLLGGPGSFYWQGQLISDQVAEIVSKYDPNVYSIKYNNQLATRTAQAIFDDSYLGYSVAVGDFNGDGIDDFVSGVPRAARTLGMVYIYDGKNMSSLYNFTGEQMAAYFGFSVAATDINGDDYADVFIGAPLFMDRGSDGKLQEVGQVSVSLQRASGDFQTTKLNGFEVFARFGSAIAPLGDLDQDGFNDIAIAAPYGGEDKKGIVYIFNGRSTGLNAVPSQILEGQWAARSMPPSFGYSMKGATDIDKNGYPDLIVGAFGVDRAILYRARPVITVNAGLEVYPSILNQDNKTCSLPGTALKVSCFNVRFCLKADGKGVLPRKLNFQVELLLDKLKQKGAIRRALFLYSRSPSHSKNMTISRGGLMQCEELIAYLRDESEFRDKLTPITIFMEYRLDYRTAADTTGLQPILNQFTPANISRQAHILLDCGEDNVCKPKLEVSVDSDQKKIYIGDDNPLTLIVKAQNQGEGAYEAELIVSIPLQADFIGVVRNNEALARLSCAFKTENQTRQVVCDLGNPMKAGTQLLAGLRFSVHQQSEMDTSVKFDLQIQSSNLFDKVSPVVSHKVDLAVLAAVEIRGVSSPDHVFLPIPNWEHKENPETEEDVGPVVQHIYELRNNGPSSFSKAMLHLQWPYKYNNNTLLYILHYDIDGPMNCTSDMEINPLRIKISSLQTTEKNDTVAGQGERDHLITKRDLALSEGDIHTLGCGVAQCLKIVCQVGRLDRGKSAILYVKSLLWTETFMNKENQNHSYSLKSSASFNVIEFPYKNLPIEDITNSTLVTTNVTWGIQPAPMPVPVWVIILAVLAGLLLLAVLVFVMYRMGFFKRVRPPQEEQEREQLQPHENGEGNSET
T3 sequence (P05556 21-798, chain 2 of 2): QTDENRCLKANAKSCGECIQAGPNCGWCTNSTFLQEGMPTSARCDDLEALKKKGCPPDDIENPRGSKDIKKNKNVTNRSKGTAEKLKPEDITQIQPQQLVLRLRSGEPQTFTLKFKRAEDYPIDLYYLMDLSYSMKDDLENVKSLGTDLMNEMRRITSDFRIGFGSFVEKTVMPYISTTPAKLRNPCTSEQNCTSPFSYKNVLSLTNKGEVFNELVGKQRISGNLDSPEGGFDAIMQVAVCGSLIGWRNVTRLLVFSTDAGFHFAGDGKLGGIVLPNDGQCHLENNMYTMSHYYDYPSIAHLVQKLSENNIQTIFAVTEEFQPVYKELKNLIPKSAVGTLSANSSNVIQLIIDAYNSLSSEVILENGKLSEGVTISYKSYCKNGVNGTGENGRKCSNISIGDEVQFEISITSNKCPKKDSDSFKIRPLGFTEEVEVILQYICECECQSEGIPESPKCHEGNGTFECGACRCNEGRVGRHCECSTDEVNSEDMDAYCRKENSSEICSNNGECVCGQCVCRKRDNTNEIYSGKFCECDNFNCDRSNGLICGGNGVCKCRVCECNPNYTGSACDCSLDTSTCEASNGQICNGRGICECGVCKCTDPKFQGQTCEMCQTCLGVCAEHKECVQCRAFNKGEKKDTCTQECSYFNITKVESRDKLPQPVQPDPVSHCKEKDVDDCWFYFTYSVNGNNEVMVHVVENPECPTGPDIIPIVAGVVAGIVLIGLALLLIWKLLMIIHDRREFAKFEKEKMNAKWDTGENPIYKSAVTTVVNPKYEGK

Measured: binding result

T2 sequence (P06756 31-1048, chain 1 of 2): as the sequence (P06756 31-1048, chain 1 of 2) above
T2 sequence (P18084 24-799, chain 2 of 2): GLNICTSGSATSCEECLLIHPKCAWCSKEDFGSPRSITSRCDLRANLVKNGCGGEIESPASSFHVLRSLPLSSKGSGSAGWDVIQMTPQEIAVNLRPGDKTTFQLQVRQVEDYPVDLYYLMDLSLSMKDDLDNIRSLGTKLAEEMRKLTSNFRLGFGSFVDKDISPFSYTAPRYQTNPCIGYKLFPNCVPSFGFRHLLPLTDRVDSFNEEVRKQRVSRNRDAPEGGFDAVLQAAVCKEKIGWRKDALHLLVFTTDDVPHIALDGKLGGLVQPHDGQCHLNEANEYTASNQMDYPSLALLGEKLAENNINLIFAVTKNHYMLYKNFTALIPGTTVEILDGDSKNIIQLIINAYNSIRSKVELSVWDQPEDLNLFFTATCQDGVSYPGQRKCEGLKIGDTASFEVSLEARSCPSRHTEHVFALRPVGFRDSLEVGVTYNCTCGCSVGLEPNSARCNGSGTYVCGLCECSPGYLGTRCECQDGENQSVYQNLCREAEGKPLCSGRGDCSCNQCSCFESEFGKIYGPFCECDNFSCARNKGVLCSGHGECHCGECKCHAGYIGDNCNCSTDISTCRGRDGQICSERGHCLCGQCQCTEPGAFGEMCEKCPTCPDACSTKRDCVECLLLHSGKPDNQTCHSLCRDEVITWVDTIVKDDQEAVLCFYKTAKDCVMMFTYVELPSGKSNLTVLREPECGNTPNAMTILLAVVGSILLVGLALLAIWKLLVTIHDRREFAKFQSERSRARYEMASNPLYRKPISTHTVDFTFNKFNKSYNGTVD
T1 sequence (P08648 42-1049, chain 1 of 2): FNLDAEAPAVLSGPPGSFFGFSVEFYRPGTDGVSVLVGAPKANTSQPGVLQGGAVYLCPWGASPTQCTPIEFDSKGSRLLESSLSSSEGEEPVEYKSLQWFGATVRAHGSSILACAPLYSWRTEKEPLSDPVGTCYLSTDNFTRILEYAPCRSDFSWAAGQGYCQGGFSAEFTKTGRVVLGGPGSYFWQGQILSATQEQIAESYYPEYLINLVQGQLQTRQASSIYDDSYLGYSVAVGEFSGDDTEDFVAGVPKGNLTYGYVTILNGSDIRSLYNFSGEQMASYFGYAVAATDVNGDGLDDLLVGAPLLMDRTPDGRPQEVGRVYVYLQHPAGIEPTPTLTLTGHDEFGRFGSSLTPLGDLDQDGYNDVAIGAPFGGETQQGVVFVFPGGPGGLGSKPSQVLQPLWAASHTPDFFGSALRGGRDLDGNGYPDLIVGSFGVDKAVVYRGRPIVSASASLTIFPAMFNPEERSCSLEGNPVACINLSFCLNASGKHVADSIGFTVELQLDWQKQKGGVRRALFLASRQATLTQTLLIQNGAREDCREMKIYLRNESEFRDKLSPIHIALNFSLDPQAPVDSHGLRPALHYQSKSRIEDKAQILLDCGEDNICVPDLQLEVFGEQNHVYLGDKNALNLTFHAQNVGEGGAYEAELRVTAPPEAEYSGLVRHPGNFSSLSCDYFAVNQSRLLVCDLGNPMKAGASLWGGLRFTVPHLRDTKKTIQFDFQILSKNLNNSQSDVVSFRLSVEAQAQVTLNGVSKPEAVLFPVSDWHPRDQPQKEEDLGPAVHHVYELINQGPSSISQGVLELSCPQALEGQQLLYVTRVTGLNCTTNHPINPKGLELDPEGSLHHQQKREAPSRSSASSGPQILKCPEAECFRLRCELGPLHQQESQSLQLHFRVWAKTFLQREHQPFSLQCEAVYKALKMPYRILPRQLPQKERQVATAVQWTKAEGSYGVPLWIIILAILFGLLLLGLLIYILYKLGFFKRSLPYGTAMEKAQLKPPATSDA
T1 sequence (P05556 21-798, chain 2 of 2): as the sequence (P05556 21-798, chain 2 of 2) above

B1: scFv antibody Bc-12 (scFv)
scFv: MAQVQLVQSGAEVKKPGASVKVSCKASGYTFSNYGITWVRQAPGQGLEWMGWINNGNTHYAQKFQGRVTMTTDTSTSTAYMELRSLRSDDTAVYYCARDPRGDDEPYWGQGTLVTVSSGGGGSGGGGSGGGGSEIVLTQSPLSLPVTLGQPASISCRSSQNLVYSDGNTYLSWFQQRPGQSPRRLIYKVSNRDSGVPDRFSGSGSGTDFTLKISRVEAEDIGVYYCMQGTHWPPRTFGQGTKVEIKRGLGGLVDYKDDDDK
notes: also called scFv Bc-12
no binding: all assays above
